T1: human calcitonin receptor (human, UniProt P30988 25-474)
T1 construct: whole, on cells; Used as cell membranes; also called hCTR; hCT
T1 sequence (looked up): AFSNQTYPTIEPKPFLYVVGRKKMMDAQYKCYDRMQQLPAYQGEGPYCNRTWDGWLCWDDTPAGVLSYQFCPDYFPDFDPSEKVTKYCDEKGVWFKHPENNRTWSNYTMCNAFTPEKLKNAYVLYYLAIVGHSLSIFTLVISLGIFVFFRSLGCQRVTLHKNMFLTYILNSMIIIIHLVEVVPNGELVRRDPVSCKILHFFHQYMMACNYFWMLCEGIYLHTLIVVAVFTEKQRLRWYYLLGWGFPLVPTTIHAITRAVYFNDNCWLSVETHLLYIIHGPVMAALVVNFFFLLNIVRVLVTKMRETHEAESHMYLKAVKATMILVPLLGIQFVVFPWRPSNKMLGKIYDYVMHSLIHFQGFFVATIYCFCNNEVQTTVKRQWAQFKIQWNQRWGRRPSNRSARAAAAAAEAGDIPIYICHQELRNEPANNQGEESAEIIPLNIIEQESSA

B1: N^ε1-[(4S)-4-carboxy-4-(19-carboxynonadecanoylamino)butanoyl]-[Arg17,Pro21,Pro27,His34]-h-amylin (peptide)
peptide: K([γGlu-C20 diacid])CNTATCATQRLANFLRHSSPNFGAIPSSTNVGHNTY-NH2
modifications: disulfide 2-7; N-terminus assumed
SMILES: CC[C@H](C)[C@H](NC(=O)[C@H](C)NC(=O)CNC(=O)[C@H](Cc1ccccc1)NC(=O)[C@H](CC(N)=O)NC(=O)[C@@H]1CCCN1C(=O)[C@H](CO)NC(=O)[C@H](CO)NC(=O)[C@H](Cc1c[nH]cn1)NC(=O)[C@H](CCCNC(=N)N)NC(=O)[C@H](CC(C)C)NC(=O)[C@H](Cc1ccccc1)NC(=O)[C@H](CC(N)=O)NC(=O)[C@H](C)NC(=O)[C@H](CC(C)C)NC(=O)[C@H](CCCNC(=N)N)NC(=O)[C@H](CCC(N)=O)NC(=O)[C@@H](NC(=O)[C@H](C)NC(=O)[C@@H]1CSSC[C@H](NC(=O)[C@@H](N)CCCCNC(=O)CC[C@H](NC(=O)CCCCCCCCCCCCCCCCCCC(=O)O)C(=O)O)C(=O)N[C@@H](CC(N)=O)C(=O)N[C@@H]([C@@H](C)O)C(=O)N[C@@H](C)C(=O)N[C@@H]([C@@H](C)O)C(=O)N1)[C@@H](C)O)C(=O)N1CCC[C@H]1C(=O)N[C@@H](CO)C(=O)N[C@@H](CO)C(=O)N[C@H](C(=O)N[C@@H](CC(N)=O)C(=O)N[C@H](C(=O)NCC(=O)N[C@@H](Cc1c[nH]cn1)C(=O)N[C@@H](CC(N)=O)C(=O)N[C@H](C(=O)N[C@@H](Cc1ccc(O)cc1)C(N)=O)[C@@H](C)O)C(C)C)[C@@H](C)O
notes: also called compound 77
B2: N^ε1-[(4S)-4-carboxy-4-[[(4S)-4-carboxy-4-(19-carboxynonadecanoylamino)butanoyl]amino]butanoyl]-[Glu14,Arg17,Pro21,Pro27,His34]-h-amylin (peptide)
peptide: K([γGlu-γGlu-C20 diacid])CNTATCATQRLAEFLRHSSPNFGAIPSSTNVGHNTY-NH2
modifications: disulfide 2-7; N-terminus assumed
SMILES: CC[C@H](C)[C@H](NC(=O)[C@H](C)NC(=O)CNC(=O)[C@H](Cc1ccccc1)NC(=O)[C@H](CC(N)=O)NC(=O)[C@@H]1CCCN1C(=O)[C@H](CO)NC(=O)[C@H](CO)NC(=O)[C@H](Cc1c[nH]cn1)NC(=O)[C@H](CCCNC(=N)N)NC(=O)[C@H](CC(C)C)NC(=O)[C@H](Cc1ccccc1)NC(=O)[C@H](CCC(=O)O)NC(=O)[C@H](C)NC(=O)[C@H](CC(C)C)NC(=O)[C@H](CCCNC(=N)N)NC(=O)[C@H](CCC(N)=O)NC(=O)[C@@H](NC(=O)[C@H](C)NC(=O)[C@@H]1CSSC[C@H](NC(=O)[C@@H](N)CCCCNC(=O)CC[C@H](NC(=O)CC[C@H](NC(=O)CCCCCCCCCCCCCCCCCCC(=O)O)C(=O)O)C(=O)O)C(=O)N[C@@H](CC(N)=O)C(=O)N[C@@H]([C@@H](C)O)C(=O)N[C@@H](C)C(=O)N[C@@H]([C@@H](C)O)C(=O)N1)[C@@H](C)O)C(=O)N1CCC[C@H]1C(=O)N[C@@H](CO)C(=O)N[C@@H](CO)C(=O)N[C@H](C(=O)N[C@@H](CC(N)=O)C(=O)N[C@H](C(=O)NCC(=O)N[C@@H](Cc1c[nH]cn1)C(=O)N[C@@H](CC(N)=O)C(=O)N[C@H](C(=O)N[C@@H](Cc1ccc(O)cc1)C(N)=O)[C@@H](C)O)C(C)C)[C@@H](C)O
notes: also called compound 87
B3: N^ε1N^ε1-[(4S)-4-carboxy-4-(19-carboxynonadecanoylamino)butanoyl]-[His14,Arg17,Pro21,Pro27,Pro34]-h-amylin (peptide)
peptide: K([γGlu-C20 diacid])CNTATCATQRLAHFLRHSSPNFGAIPSSTNVGPNTY-NH2
modifications: disulfide 2-7; N-terminus assumed
SMILES: CC[C@H](C)[C@H](NC(=O)[C@H](C)NC(=O)CNC(=O)[C@H](Cc1ccccc1)NC(=O)[C@H](CC(N)=O)NC(=O)[C@@H]1CCCN1C(=O)[C@H](CO)NC(=O)[C@H](CO)NC(=O)[C@H](Cc1c[nH]cn1)NC(=O)[C@H](CCCNC(=N)N)NC(=O)[C@H](CC(C)C)NC(=O)[C@H](Cc1ccccc1)NC(=O)[C@H](Cc1c[nH]cn1)NC(=O)[C@H](C)NC(=O)[C@H](CC(C)C)NC(=O)[C@H](CCCNC(=N)N)NC(=O)[C@H](CCC(N)=O)NC(=O)[C@@H](NC(=O)[C@H](C)NC(=O)[C@@H]1CSSC[C@H](NC(=O)[C@@H](N)CCCCNC(=O)CC[C@H](NC(=O)CCCCCCCCCCCCCCCCCCC(=O)O)C(=O)O)C(=O)N[C@@H](CC(N)=O)C(=O)N[C@@H]([C@@H](C)O)C(=O)N[C@@H](C)C(=O)N[C@@H]([C@@H](C)O)C(=O)N1)[C@@H](C)O)C(=O)N1CCC[C@H]1C(=O)N[C@@H](CO)C(=O)N[C@@H](CO)C(=O)N[C@H](C(=O)N[C@@H](CC(N)=O)C(=O)N[C@H](C(=O)NCC(=O)N1CCC[C@H]1C(=O)N[C@@H](CC(N)=O)C(=O)N[C@H](C(=O)N[C@@H](Cc1ccc(O)cc1)C(N)=O)[C@@H](C)O)C(C)C)[C@@H](C)O
notes: also called compound 67
B4: N^ε1-[(4S)-4-carboxy-4-[[(4S)-4-carboxy-4-(19-carboxynonadecanoylamino)butanoyl]amino]butanoyl]-[Glu14,Arg17,Pro21,Pro27,Pro34,Glu35]-h-amylin (peptide)
peptide: K([γGlu-γGlu-C20 diacid])CNTATCATQRLAEFLRHSSPNFGAIPSSTNVGPETY-NH2
modifications: disulfide 2-7; N-terminus assumed
SMILES: CC[C@H](C)[C@H](NC(=O)[C@H](C)NC(=O)CNC(=O)[C@H](Cc1ccccc1)NC(=O)[C@H](CC(N)=O)NC(=O)[C@@H]1CCCN1C(=O)[C@H](CO)NC(=O)[C@H](CO)NC(=O)[C@H](Cc1c[nH]cn1)NC(=O)[C@H](CCCNC(=N)N)NC(=O)[C@H](CC(C)C)NC(=O)[C@H](Cc1ccccc1)NC(=O)[C@H](CCC(=O)O)NC(=O)[C@H](C)NC(=O)[C@H](CC(C)C)NC(=O)[C@H](CCCNC(=N)N)NC(=O)[C@H](CCC(N)=O)NC(=O)[C@@H](NC(=O)[C@H](C)NC(=O)[C@@H]1CSSC[C@H](NC(=O)[C@@H](N)CCCCNC(=O)CC[C@H](NC(=O)CC[C@H](NC(=O)CCCCCCCCCCCCCCCCCCC(=O)O)C(=O)O)C(=O)O)C(=O)N[C@@H](CC(N)=O)C(=O)N[C@@H]([C@@H](C)O)C(=O)N[C@@H](C)C(=O)N[C@@H]([C@@H](C)O)C(=O)N1)[C@@H](C)O)C(=O)N1CCC[C@H]1C(=O)N[C@@H](CO)C(=O)N[C@@H](CO)C(=O)N[C@H](C(=O)N[C@@H](CC(N)=O)C(=O)N[C@H](C(=O)NCC(=O)N1CCC[C@H]1C(=O)N[C@@H](CCC(=O)O)C(=O)N[C@H](C(=O)N[C@@H](Cc1ccc(O)cc1)C(N)=O)[C@@H](C)O)C(C)C)[C@@H](C)O
B5: N^ε1-[(4S)-4-carboxy-4-[[(4S)-4-carboxy-4-(19-carboxynonadecanoylamino)butanoyl]amino]butanoyl]-[His14,Arg17,Pro21,Pro27]-h-amylin (peptide)
peptide: K([γGlu-γGlu-C20 diacid])CNTATCATQRLAHFLRHSSPNFGAIPSSTNVGSNTY-NH2
modifications: disulfide 2-7; N-terminus assumed
SMILES: CC[C@H](C)[C@H](NC(=O)[C@H](C)NC(=O)CNC(=O)[C@H](Cc1ccccc1)NC(=O)[C@H](CC(N)=O)NC(=O)[C@@H]1CCCN1C(=O)[C@H](CO)NC(=O)[C@H](CO)NC(=O)[C@H](Cc1c[nH]cn1)NC(=O)[C@H](CCCNC(=N)N)NC(=O)[C@H](CC(C)C)NC(=O)[C@H](Cc1ccccc1)NC(=O)[C@H](Cc1c[nH]cn1)NC(=O)[C@H](C)NC(=O)[C@H](CC(C)C)NC(=O)[C@H](CCCNC(=N)N)NC(=O)[C@H](CCC(N)=O)NC(=O)[C@@H](NC(=O)[C@H](C)NC(=O)[C@@H]1CSSC[C@H](NC(=O)[C@@H](N)CCCCNC(=O)CC[C@H](NC(=O)CC[C@H](NC(=O)CCCCCCCCCCCCCCCCCCC(=O)O)C(=O)O)C(=O)O)C(=O)N[C@@H](CC(N)=O)C(=O)N[C@@H]([C@@H](C)O)C(=O)N[C@@H](C)C(=O)N[C@@H]([C@@H](C)O)C(=O)N1)[C@@H](C)O)C(=O)N1CCC[C@H]1C(=O)N[C@@H](CO)C(=O)N[C@@H](CO)C(=O)N[C@H](C(=O)N[C@@H](CC(N)=O)C(=O)N[C@H](C(=O)NCC(=O)N[C@@H](CO)C(=O)N[C@@H](CC(N)=O)C(=O)N[C@H](C(=O)N[C@@H](Cc1ccc(O)cc1)C(N)=O)[C@@H](C)O)C(C)C)[C@@H](C)O
notes: also called compound 92
B6: N^ε1-[(4S)-4-carboxy-4-[[(4S)-4-carboxy-4-(19-carboxynonadecanoylamino)butanoyl]amino]butanoyl]-[Glu14,Arg17,Pro21,Pro27,Pro34,Arg35]-h-amylin (peptide)
peptide: K([γGlu-γGlu-C20 diacid])CNTATCATQRLAEFLRHSSPNFGAIPSSTNVGPRTY-NH2
modifications: disulfide 2-7; N-terminus assumed
SMILES: CC[C@H](C)[C@H](NC(=O)[C@H](C)NC(=O)CNC(=O)[C@H](Cc1ccccc1)NC(=O)[C@H](CC(N)=O)NC(=O)[C@@H]1CCCN1C(=O)[C@H](CO)NC(=O)[C@H](CO)NC(=O)[C@H](Cc1c[nH]cn1)NC(=O)[C@H](CCCNC(=N)N)NC(=O)[C@H](CC(C)C)NC(=O)[C@H](Cc1ccccc1)NC(=O)[C@H](CCC(=O)O)NC(=O)[C@H](C)NC(=O)[C@H](CC(C)C)NC(=O)[C@H](CCCNC(=N)N)NC(=O)[C@H](CCC(N)=O)NC(=O)[C@@H](NC(=O)[C@H](C)NC(=O)[C@@H]1CSSC[C@H](NC(=O)[C@@H](N)CCCCNC(=O)CC[C@H](NC(=O)CC[C@H](NC(=O)CCCCCCCCCCCCCCCCCCC(=O)O)C(=O)O)C(=O)O)C(=O)N[C@@H](CC(N)=O)C(=O)N[C@@H]([C@@H](C)O)C(=O)N[C@@H](C)C(=O)N[C@@H]([C@@H](C)O)C(=O)N1)[C@@H](C)O)C(=O)N1CCC[C@H]1C(=O)N[C@@H](CO)C(=O)N[C@@H](CO)C(=O)N[C@H](C(=O)N[C@@H](CC(N)=O)C(=O)N[C@H](C(=O)NCC(=O)N1CCC[C@H]1C(=O)N[C@@H](CCCNC(=N)N)C(=O)N[C@H](C(=O)N[C@@H](Cc1ccc(O)cc1)C(N)=O)[C@@H](C)O)C(C)C)[C@@H](C)O
notes: also called compound 110

Numbered stars: 1 amine (or outer) side, 2 acyl side, 3 side chain; on linkers, the order of the positions; unused ones are H or OH. Bridge positions count the residues as written; N and C are the ends. Side chains are listed from the residue outwards. Ends that are not written are not given here. * marks the point of attachment. C20 diacid = O=C(O)CCCCCCCCCCCCCCCCCCC(=O)*; γGlu = O=C(O)[C@H](CCC(=O)[*:2])N[*:1]

The first experiment addresses T1, human calcitonin receptor. In words: ratio of hCTR IC50 to hAmylin-R IC50 (reference: human amylin receptor). The essentials: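 Competition binding by SPA with cell membranes (35 ng/μL) and SPA beads in 50 mM Hepes pH 7.4 with 1 mM CaCl2, 5 mM MgCl2, 0.1% OA and 0.02% Tween20. Incubated 120 min at 25 °C with shaking, then counted.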
For the molecule B1, the “Ratio hCT/hAmylin binding” value was 118.

On to B2, for which the “Ratio hCT/hAmylin binding” value came out at 35.6.

Regarding B3, the “Ratio hCT/hAmylin binding” value amounted to 51.6.

For the molecule B4, the “Ratio hCT/hAmylin binding” value was found to be 17.6.

Turning to B5, the “Ratio hCT/hAmylin binding” value is 145.

With B6, the “Ratio hCT/hAmylin binding” value came to 53.6.

The target in the next experiment is T1, human calcitonin receptor. In words: SPA competition on BHK cell membranes, 125I-calcitonin as radioligand (Assay VII). The essentials: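 BHK hCTR membranes 35 ng/μL + SPA beads 0.05 mg/well; buffer 50 mM Hepes pH 7.4, 1 mM CaCl2, 5 mM MgCl₂, 0.1% OA, 0.02% Tween20. 120 min, 25° C., shaking. Scintillation count; IC50 by one-site binding competition.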
As for B1, the IC50 (commonly the concentration at which inhibition is half-maximal) is 50.7 nM.

Consider B2, for which the IC50 worked out at 22.5 nM.

As for B3, the IC50 was found to be 4.63 nM.

For B4, the half-maximal inhibitory concentration (IC50) was 2.13 nM.

As to B5, the IC50 amounted to 26 nM.

Turning to B6, the IC50 came out at 17.5 nM.

Values taken from US20140087995A1 (published 2014).
